One block for each molecule: values may come before it.
Key:
[1] = biological target: Native NGAL (plus DTT - reduced) (UniProt P80188); assay: … sandwich CMIA, capture HYB 211-01, detection acridinium-HYB 211-02; same sample reduced with DTT
[2] = biological target: Wild-type recombinant human NGAL dimer calibrators treated with DTT (human) (UniProt P80188); assay: … sandwich CMIA, capture HYB 211-01, detection acridinium-HYB 211-02; DTT-treated against untreated dimer calibrator; target 50 ng/mL
[3] = biological target: Wild-type recombinant human NGAL dimer calibrators treated with DTT (human) (UniProt P80188); assay: … sandwich CMIA, capture HYB 211-01, detection acridinium-HYB 211-02; DTT-treated against untreated dimer calibrator; target 5 ng/mL
[4] = biological target: Wild-type recombinant human NGAL dimer calibrators treated with DTT (human) (UniProt P80188); assay: … sandwich CMIA, capture HYB 211-01, detection acridinium-HYB 211-02; curve fit with monomer calibrators; target 5 ng/mL
[5] = biological target: Wild-type recombinant human NGAL dimer expressed in CHO cells (human) (UniProt P80188); assay: as above
[6] = biological target: Wild-type recombinant human NGAL monomer expressed in CHO cells (human) (UniProt P80188); assay: as above
[7] = biological target: Wild-type recombinant human NGAL dimer calibrators treated with DTT (human) (UniProt P80188); assay: … sandwich CMIA, capture HYB 211-01, detection acridinium-HYB 211-02; calibrator C, NGAL 50 ng/mL
[8] = biological target: Wild-type recombinant human NGAL dimer expressed in CHO cells (human) (UniProt P80188); assay: as above
[9] = biological target: Wild-type recombinant human NGAL monomer expressed in CHO cells (human) (UniProt P80188); assay: as above
[10] = biological target: Wild-type recombinant human NGAL dimer calibrators treated with DTT (human) (UniProt P80188); assay: … sandwich CMIA, capture HYB 211-01, detection acridinium-HYB 211-02; calibrator D, NGAL 250 ng/mL
[11] = biological target: Wild-type recombinant human NGAL dimer expressed in CHO cells (human) (UniProt P80188); assay: as above
[12] = biological target: Wild-type recombinant human NGAL monomer expressed in CHO cells (human) (UniProt P80188); assay: as above
[13] = biological target: Wild-type recombinant human NGAL dimer calibrators treated with DTT (human) (UniProt P80188); assay: … sandwich CMIA, capture HYB 211-01, detection acridinium-HYB 211-02; NGAL 600 ng/mL
[14] = biological target: Wild-type recombinant human NGAL dimer expressed in CHO cells (human) (UniProt P80188); assay: as above
[15] = biological target: Native NGAL purchased from Diagnostics Development (Uppsala, Sweden), non-reduced (UniProt P80188); assay: as above
[16] = biological target: Wild-type recombinant human NGAL monomer expressed in CHO cells (human) (UniProt P80188); assay: as above
[17] = biological target: Wild-type recombinant human NGAL dimer calibrators treated with DTT (human) (UniProt P80188); assay: … sandwich CMIA, capture HYB 211-01, detection acridinium-HYB 211-02; NGAL 250 ng/mL
[18] = biological target: Wild-type recombinant human NGAL dimer expressed in CHO cells (human) (UniProt P80188); assay: as above
[19] = biological target: Native NGAL purchased from Diagnostics Development (Uppsala, Sweden), non-reduced (UniProt P80188); assay: as above
[20] = biological target: Wild-type recombinant human NGAL monomer expressed in CHO cells (human) (UniProt P80188); assay: as above
[21] = biological target: Wild-type recombinant human NGAL dimer expressed in CHO cells (human) (UniProt P80188); assay: … sandwich CMIA, capture 1-2322-455, detection acridinium-1-903-430; NGAL Dimer Low, 150 ng/mL dimer calibrator
[22] = biological target: Wild-type recombinant human NGAL dimer expressed in CHO cells (human) (UniProt P80188); assay: … sandwich CMIA, capture 1-2322-455, detection acridinium-1-903-430; NGAL 250 ng/mL
[23] = biological target: Wild-type recombinant human NGAL monomer expressed in CHO cells (human) (UniProt P80188); assay: as above
[24] = biological target: Wild-type recombinant human NGAL dimer expressed in CHO cells (human) (UniProt P80188); assay: … sandwich CMIA, capture 1-2322-455, detection acridinium-1-903-430; NGAL 50 ng/mL
[25] = biological target: Wild-type recombinant human NGAL monomer expressed in CHO cells (human) (UniProt P80188); assay: as above
[26] = biological target: Wild-type recombinant human NGAL dimer calibrators with TCEP in the reaction mixture (human) (UniProt P80188); assay: … sandwich CMIA, capture 1-2322-455, detection acridinium-1-903-430; TCEP in reaction; curve fit with monomer calibrators; target 250 ng/mL

NGAL concentration detected [1]: 23.8 ng/mL
% Increase due to DTT [2]: 247%
% Increase due to DTT [3]: 229%
Curve Fit Results [4]: 4.7 ng/mL
Curve Fit Results [5]: 1.4 ng/mL
Curve Fit Results [6]: 5.1 ng/mL
RLUs [7]: 101000 RLUs
RLUs [8]: 31500 RLUs
RLUs [9]: 101000 RLUs
RLUs [10]: 378000 RLUs
RLUs [11]: 142000 RLUs
RLUs [12]: 396000 RLUs
RLUs [13]: 676000 RLUs
RLUs [14]: 282000 RLUs
RLUs [15]: 1.07e+06 RLUs
RLUs [16]: 691000 RLUs
RLUs [17]: 378000 RLUs
RLUs [18]: 142000 RLUs
RLUs [19]: 620000 RLUs
RLUs [20]: 396000 RLUs
Molecule: anti-NGAL antibody HYB 211-01 from AntibodyShop A/S, Gentofte, Denmark

NGAL concentration detected [21]: 33.9 ng/mL
RLUs [22]: 336000 RLUs
RLUs [23]: 900000 RLUs
RLUs [24]: 76800 RLUs
RLUs [25]: 240000 RLUs
Curve Fit Results [26]: 126 ng/mL
B1: antibody produced by murine hybridoma cell line 1-2322-455 having ATCC Accession No. PTA-8024 (antibody, V domains shown)
VH: EVQLVESGGGLVQPGGSLKLSCAASGFTFNNYYMSWVRQTPERRLEWVAYISSSGGSTYYSDSVRGRFTISRDTARNTLYLQMTSLKSEDTAMYYCARHFGDYSYFDYWGQGTTLTVSS
VL: DIQMTQSPASLSASVGETVTITCRASENFYSYLAWYQQKQGKSPQLLVYNAKTLAEGVPSRFSGSGSGTQFSLKINSLQPEDFGTYYCQHHYDIPLTFGAGTKLELKR

— EP2225268B1
